Legend:
MBP-Rop^G11 (D45N) = molecular target: T1, MBP-Rop^G11 (D45N) (Drosophila melanogaster, UniProt Q07327 1-597, D45N); test: pull-down; GST-syx1A^ΔC (2 ug) bound to GST bind resin, 1 hr at 4°C with MBP-Rop or MBP-Rop^G11 at 0-6 uM in NP40 buffer (1% NP-40, 150 mM NaCl, 2 mM EDTA, phosphate); SDS-PAGE, Coomassie, fraction bound quantified in ImageJ, Kd from a dose response curve fit (Prism 6); n = 2; settings: both partners purified
T1 construct: Rop (Ras opposite, Unc-18 orthologue), Drosophila melanogaster; PMAL-Rop with the point mutation of the Rop^G11 allele (Asp45 to Asn; nucleotide G133A) made by site-directed mutagenesis; Same construct as m1 with D45N; the mutation is that of the Rop^G11 allele of Harrison et al., 1994; also called recombinant Rop^G11 mutant protein; source: Rosetta cells (Novagen), purified (amylose resin, …)
T1 sequence (Q07327 whole entry D45N): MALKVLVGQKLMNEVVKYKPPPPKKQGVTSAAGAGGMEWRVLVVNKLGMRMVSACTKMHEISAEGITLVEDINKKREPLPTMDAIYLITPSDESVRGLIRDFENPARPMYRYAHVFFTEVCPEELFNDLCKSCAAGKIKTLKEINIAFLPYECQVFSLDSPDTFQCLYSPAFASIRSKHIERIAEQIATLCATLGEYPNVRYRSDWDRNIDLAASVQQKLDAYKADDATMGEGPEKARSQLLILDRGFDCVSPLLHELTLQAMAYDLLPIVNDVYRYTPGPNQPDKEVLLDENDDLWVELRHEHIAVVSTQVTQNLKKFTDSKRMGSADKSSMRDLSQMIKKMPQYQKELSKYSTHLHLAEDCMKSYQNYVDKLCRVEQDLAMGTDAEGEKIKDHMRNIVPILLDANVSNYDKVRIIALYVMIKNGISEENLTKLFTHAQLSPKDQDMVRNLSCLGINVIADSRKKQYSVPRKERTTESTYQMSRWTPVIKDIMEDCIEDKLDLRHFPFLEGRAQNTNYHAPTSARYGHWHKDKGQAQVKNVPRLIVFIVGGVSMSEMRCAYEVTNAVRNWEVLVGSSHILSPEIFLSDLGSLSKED

[1] = molecular target: T2, MBP-Rop (recombinant wild-type Rop, Drosophila Unc-18) (Drosophila melanogaster, UniProt Q07327 1-597); test: as above; settings: both partners purified
T2 construct: Rop (Ras opposite, Unc-18 orthologue), Drosophila melanogaster; cDNA SD04216 amplified with primers from the start ATG to the stop codon and cloned into pMAL-c5E; Expressed from pMAL-c5E (NEB N8110); printed size of the fusion 110 kDa; also called MBP-Rop^WT; Ras opposite; source: Rosetta cells (Novagen), purified (amylose resin, eluted with maltose)
T2 sequence (Q07327 whole entry, the tested form may be a part): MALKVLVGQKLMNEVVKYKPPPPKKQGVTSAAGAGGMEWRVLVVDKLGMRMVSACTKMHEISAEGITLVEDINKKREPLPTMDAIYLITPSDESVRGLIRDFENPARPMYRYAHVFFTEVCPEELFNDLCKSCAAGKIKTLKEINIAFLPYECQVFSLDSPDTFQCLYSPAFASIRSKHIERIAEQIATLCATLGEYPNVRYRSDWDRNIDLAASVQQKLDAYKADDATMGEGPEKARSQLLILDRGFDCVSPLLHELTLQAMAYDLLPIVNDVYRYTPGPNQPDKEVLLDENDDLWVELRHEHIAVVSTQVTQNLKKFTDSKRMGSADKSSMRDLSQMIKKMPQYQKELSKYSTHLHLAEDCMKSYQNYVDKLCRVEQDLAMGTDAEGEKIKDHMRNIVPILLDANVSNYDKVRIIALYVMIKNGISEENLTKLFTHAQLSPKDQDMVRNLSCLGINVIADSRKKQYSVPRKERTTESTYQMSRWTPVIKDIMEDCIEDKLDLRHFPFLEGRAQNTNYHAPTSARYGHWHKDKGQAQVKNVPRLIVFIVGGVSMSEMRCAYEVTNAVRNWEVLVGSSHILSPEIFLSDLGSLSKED

B1: GST-syx1A^ΔC (Syntaxin1A, amino acids 1-268) (domain or fragment, Drosophila melanogaster, UniProt Q24547 1-268, looked up)
chain: MTKDRLAALHAAQSDDEEETEVAVNVDGHDSYMDDFFAQVEEIRGMIDKVQDNVEEVKKKHSAILSAPQTDEKTKQELEDLMADIKKNANRVRGKLKGIEQNIEQEEQQNKSSADLRIRKTQHSTLSRKFVEVMTEYNRTQTDYRERCKGRIQRQLEITGRPTNDDELEKMLEEGNSSVFTQGIIMETQQAKQTLADIEARHQDIMKLETSIKELHDMFMDMAMLVESQGEMIDRIEYHVEHAMDYVQTATQDTKKALKYQSKARRKK
notes: Syntaxin 1A, Drosophila melanogaster, amino acids 1-268; Expressed from pGEX-4T1; printed size of the fusion 60 kDa; The nucleotide change A802T would turn codon 268 into a stop, so the chain may end at residue 267 rather than 268; also called recombinant Syntaxin1A
Kd (MBP-Rop^G11 (D45N)): 36.1 µM
Kd [1]: 400 nM
